± gives the uncertainty stated by the source.
Test: self-splicing fitness, log relative to wild type (ln ratio); higher = more splicing; Tetrahymena group I intron in knt gene, E. coli kanamycin selection, DiMSum; sequences stand for … in CUCUCU…GGAGGGAAAAGUUAUCAGGCAUGCACCUGGUAGCUAGUCUUUAAACCAAUAGAUUGCAUCGGUUUAAAAGGCAAGACCGUCAAAUUGCGGGAAAGGGGUCAACAGCCGUUCAGUACCAAGUCUCAGGGGAAACUUUGAGAUGGCCUUGCAAAGGGUAUGGUAAUAAGCUGACGGACAUGGUCCUAACCACGCAGCCAAGUCCUAAGUCAACAGAUCUUCUGUUGAUAUGGAUGCAGUUCACAGACUAAAUGUCGGUCGGGGAAGAUGUAUUCUUCUCAUAAGAUAUAGUCGGACCUCUCCUUAAUGGGAGCUAGCGGAUGAAGUGAUGCAACACUGGAGCCGCUGGGAACUAAUUUGUAUGCGAAAGUAUAUUGAUUAGUUUUGGAGUACUCGUGGUCG
Procedure, shortened: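 Pooled colonies went to amplicon sequencing on an Illumina HiSeq 2500 after six replicate transformations. The plates were LB agar with 100 μg/mL carbenicillin, 50 μM IPTG and 0.2% rhamnose, with or without 25 μg/mL kanamycin, incubated overnight at 37°C or 30°C. The E. coli BL21(DE3) library had all eight P1ex-region intron nucleotides randomised, the intron placed in the knt kanamycin-resistance gene on pET-22b(+). DiMSum fitness is the error-weighted combination of replicate fold changes, kanamycin against none, normalised to wild type.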

Sequence | self-splicing fitness (ln) (30 °C) | self-splicing fitness (ln) (37 °C)
ACAAAGCAAUAUUACGGCCG | -0.257 ± 0.09 | 0.0921 ± 0.14
ACAAAGCAAUAUUACGGCCU | -0.338 ± 0.071 | 0.0409 ± 0.1
ACAAAGCAAUAUUACGGCGG | -0.226 ± 0.08 | -0.154 ± 0.092
ACAAAGCAAUAUUACGGGAU | -1.19 ± 0.058 | -0.492 ± 0.076
ACAAAGCAAUAUUACGGGGG | -2.81 ± 0.13 | -2.19 ± 0.16
ACAAAGCAAUAUUACGGGGU | -3.15 ± 0.16 | -2.59 ± 0.18
ACAAAGCAAUAUUACGUAAG | -1.19 ± 0.056 | -0.79 ± 0.069
ACAAAGCAAUAUUACGUAGA | -3.68 ± 0.16 | -1.66 ± 0.15
ACAAAGCAAUAUUACGUCCG | -0.802 ± 0.049 | -0.466 ± 0.063
ACAAAGCAAUAUUACGUUGC | -3.26 ± 0.12 | -2.57 ± 0.16
ACAAAGCAAUAUUACGUUUC | -4.84 ± 0.24 | -2.49 ± 0.16
ACAAAGCAAUAUUACGUUUU | -3.53 ± 0.14 | -2.95 ± 0.16
ACACAGCAAUAUUACGAACG | -0.869 ± 0.048 | -0.185 ± 0.068
ACACAGCAAUAUUACGAAUU | -3.01 ± 0.084 | -2.02 ± 0.1
ACACAGCAAUAUUACGAGCU | -0.901 ± 0.077 | -0.406 ± 0.085
ACACAGCAAUAUUACGCACC | -0.476 ± 0.09 | -0.151 ± 0.11
ACACAGCAAUAUUACGCAGG | -2.43 ± 0.093 | -1.82 ± 0.1
ACACAGCAAUAUUACGGAAC | -4.07 ± 0.17 | -2.49 ± 0.14
ACACAGCAAUAUUACGGAUU | -2.18 ± 0.096 | -1.45 ± 0.12
ACACAGCAAUAUUACGGCGG | -0.95 ± 0.069 | -0.0948 ± 0.088
ACACAGCAAUAUUACGGGAG | -2.04 ± 0.073 | -2.15 ± 0.084
ACACAGCAAUAUUACGGGGU | -3.14 ± 0.11 | -1.42 ± 0.087
ACACAGCAAUAUUACGGGUA | -2.3 ± 0.098 | -1.26 ± 0.074
ACACAGCAAUAUUACGGUAU | -2.59 ± 0.088 | -1.59 ± 0.092

Sequence | self-splicing fitness (ln) (30 °C) | self-splicing fitness (ln) (37 °C)
ACACAGCAAUAUUACGGUCU | -0.341 ± 0.05 | 0.298 ± 0.067
ACACAGCAAUAUUACGUAGC | -3.75 ± 0.14 | -2.11 ± 0.12
ACACAGCAAUAUUACGUCCU | -0.17 ± 0.055 | 0.432 ± 0.075
ACACAGCAAUAUUACGUCUA | -1.27 ± 0.072 | -0.282 ± 0.072
ACACAGCAAUAUUACGUGAU | -2.14 ± 0.062 | -1.34 ± 0.086
ACACAGCAAUAUUACGUGGG | -3.5 ± 0.098 | -1.88 ± 0.087
ACACAGCAAUAUUACGUGUA | -3.54 ± 0.11 | -2.06 ± 0.085
ACACAGCAAUAUUACGUGUC | -3.6 ± 0.12 | -3.69 ± 0.2
ACAGAGCAAUAUUACGAAUU | -4.27 ± 0.33 | -1.57 ± 0.2
ACAGAGCAAUAUUACGACAU | -3.246 ± 0.021 | -2.17 ± 0.036
ACAGAGCAAUAUUACGACCA | -0.827 ± 0.21 | 
ACAGAGCAAUAUUACGACGU | -1.31 ± 0.091 | -0.557 ± 0.11
ACAGAGCAAUAUUACGAGAU | -3.23 ± 0.19 | -2.55 ± 0.23
ACAGAGCAAUAUUACGAUCU | -1.68 ± 0.22 | 
ACAGAGCAAUAUUACGCAAA | -2.6 ± 0.34 | -1.42 ± 0.28
ACAGAGCAAUAUUACGCAAG | -3.99 ± 0.39 | -2.33 ± 0.25
ACAGAGCAAUAUUACGCCCU | -3.23 ± 0.23 | -2.02 ± 0.3
ACAGAGCAAUAUUACGCUGU | -3.87 ± 0.42 | -2.69 ± 0.29
ACAGAGCAAUAUUACGGAAG | -3.52 ± 0.22 | -2.12 ± 0.22
ACAGAGCAAUAUUACGGACG | -3.09 ± 0.17 | -0.53 ± 0.33
ACAGAGCAAUAUUACGGAUA | -3.19 ± 0.45 | 
ACAGAGCAAUAUUACGGCCA | -3.47 ± 0.19 | -2.29 ± 0.17
ACAGAGCAAUAUUACGUAAG | -2.36 ± 0.11 | -1.73 ± 0.14
ACAGAGCAAUAUUACGUACU | -2.96 ± 0.27 | -2.14 ± 0.21

Sequence | self-splicing fitness (ln) (30 °C) | self-splicing fitness (ln) (37 °C)
ACAGAGCAAUAUUACGUCUG | -2.35 ± 0.18 | -1.03 ± 0.21
ACAUAGCAAUAUUACGACUC | -0.657 ± 0.086 | -0.29 ± 0.13
ACAUAGCAAUAUUACGAUCA | -1.71 ± 0.087 | -0.779 ± 0.098
ACAUAGCAAUAUUACGAUGU | -3.82 ± 0.16 | -2.19 ± 0.16
ACAUAGCAAUAUUACGCAGA | -2.47 ± 0.14 | -1.74 ± 0.14
ACAUAGCAAUAUUACGCCAA |  | -2.32 ± 0.28
ACAUAGCAAUAUUACGCUCC | -1.62 ± 0.17 | -2.05 ± 0.23
ACAUAGCAAUAUUACGGAAG | -3.57 ± 0.15 | -3.04 ± 0.22
ACAUAGCAAUAUUACGUCCU | -0.372 ± 0.11 | -0.297 ± 0.12
ACAUAGCAAUAUUACGUGAA | -2.13 ± 0.093 | -1.18 ± 0.1
ACAUAGCAAUAUUACGUGGA | -3.3 ± 0.23 | -2.37 ± 0.14
ACAUAGCAAUAUUACGUGUA | -2.68 ± 0.21 | -2.11 ± 0.22
ACAUAGCAAUAUUACGUGUU | -4.04 ± 0.17 | -2.87 ± 0.14
ACCAAGCAAUAUUACGAAGA | -4.11 ± 0.24 | -1.56 ± 0.14
ACCAAGCAAUAUUACGAAGC | -3.94 ± 0.23 | -0.918 ± 0.15
ACCAAGCAAUAUUACGACAG | -1.81 ± 0.078 | -1.82 ± 0.11
ACCAAGCAAUAUUACGACCU | -0.493 ± 0.074 | -0.169 ± 0.087
ACCAAGCAAUAUUACGAGAU | -3.84 ± 0.13 | -2.65 ± 0.16
ACCAAGCAAUAUUACGAGCG | -0.886 ± 0.062 | -1.31 ± 0.081
ACCAAGCAAUAUUACGCCAG | -2.75 ± 0.16 | -1.42 ± 0.18
ACCAAGCAAUAUUACGCUCG | -2.2 ± 0.12 | -1.32 ± 0.13
ACCAAGCAAUAUUACGCUGU | -1.61 ± 0.067 | -0.313 ± 0.074
ACCAAGCAAUAUUACGGAAG | -3.74 ± 0.17 | -3.14 ± 0.19
ACCAAGCAAUAUUACGGAGU | -3.6 ± 0.098 | -2.25 ± 0.12

Sequence | self-splicing fitness (ln) (30 °C) | self-splicing fitness (ln) (37 °C)
ACCAAGCAAUAUUACGGCCC | -0.856 ± 0.11 | 0.112 ± 0.16
ACCAAGCAAUAUUACGGCUC | -2.09 ± 0.07 | -0.63 ± 0.084
ACCAAGCAAUAUUACGGGAC | -4.08 ± 0.14 | -2.05 ± 0.12
ACCAAGCAAUAUUACGUAUG | -3.59 ± 0.13 | -2.53 ± 0.12
ACCAAGCAAUAUUACGUCCC | -2.14 ± 0.12 | -0.924 ± 0.17
ACCAAGCAAUAUUACGUCCG | -1.19 ± 0.072 | -1.19 ± 0.11
ACCAAGCAAUAUUACGUGGC | -3.68 ± 0.18 | -2.94 ± 0.18
ACCAAGCAAUAUUACGUUCC | -3.95 ± 0.16 | -1.37 ± 0.12
ACCAAGCAAUAUUACGUUCG | -1.88 ± 0.07 | -0.644 ± 0.093
ACCAAGCAAUAUUACGUUUC | -4.28 ± 0.17 | -2.55 ± 0.14
ACCCAGCAAUAUUACGAAUU | -1.63 ± 0.075 | -0.951 ± 0.094
ACCCAGCAAUAUUACGACCA | -0.474 ± 0.1 | -0.703 ± 0.14
ACCCAGCAAUAUUACGACUG | -2.87 ± 0.23 | -2.72 ± 0.41
ACCCAGCAAUAUUACGAGAA | -1.61 ± 0.23 | -1.24 ± 0.21
ACCCAGCAAUAUUACGAUCG | -1.92 ± 0.073 | -0.696 ± 0.096
ACCCAGCAAUAUUACGCAGA | -1.02 ± 0.068 | -0.231 ± 0.072
ACCCAGCAAUAUUACGCCAU | -4.24 ± 0.23 | -1.88 ± 0.16
ACCCAGCAAUAUUACGCCUA | -1.15 ± 0.073 | -0.478 ± 0.07
ACCCAGCAAUAUUACGCGAG | -1.63 ± 0.078 | -0.948 ± 0.1
ACCCAGCAAUAUUACGCGGU | -3.41 ± 0.18 | -3.42 ± 0.21
ACCCAGCAAUAUUACGCUCG | -3.65 ± 0.33 | -2.23 ± 0.26
ACCCAGCAAUAUUACGGAAC | -1.91 ± 0.058 | -0.721 ± 0.066
ACCCAGCAAUAUUACGGAGC | -1.06 ± 0.083 | -0.369 ± 0.1
ACCCAGCAAUAUUACGGAGG | -2.1 ± 0.098 | -1.35 ± 0.12

Source: the supplement of paper PMC7877785
